Source: paper PMC9898670, “A solution structure analysis reveals a bent collagen triple helix in the complement activation recognition molecule mannan-binding lectin” (The Journal of Biological Chemistry, 2022)
Non-standard residues stand in square brackets, D forms with d. Hyp = O=C(O)[C@@H]1C[C@@H](O)CN1

B1: T3-785 collagen peptide, Ac-(POG)3-ITGARGLAGPOG-(POG)3-NH2 (peptide)
peptide: Ac-P[Hyp]GP[Hyp]GP[Hyp]GITGARGLAGP[Hyp]GP[Hyp]GP[Hyp]GP[Hyp]G-NH2
SMILES: CC[C@H](C)[C@H](NC(=O)CNC(=O)[C@@H]1C[C@@H](O)CN1C(=O)[C@@H]1CCCN1C(=O)CNC(=O)[C@@H]1C[C@@H](O)CN1C(=O)[C@@H]1CCCN1C(=O)CNC(=O)[C@@H]1C[C@@H](O)CN1C(=O)[C@@H]1CCCN1C(C)=O)C(=O)N[C@H](C(=O)NCC(=O)N[C@@H](C)C(=O)N[C@@H](CCCNC(=N)N)C(=O)NCC(=O)N[C@@H](CC(C)C)C(=O)N[C@@H](C)C(=O)NCC(=O)N1CCC[C@H]1C(=O)N1C[C@H](O)C[C@H]1C(=O)NCC(=O)N1CCC[C@H]1C(=O)N1C[C@H](O)C[C@H]1C(=O)NCC(=O)N1CCC[C@H]1C(=O)N1C[C@H](O)C[C@H]1C(=O)NCC(=O)N1CCC[C@H]1C(=O)N1C[C@H](O)C[C@H]1C(=O)NCC(N)=O)[C@@H](C)O
notes: (POG)3 written out; Homotrimeric collagen triple helix; also called Type III T3-785 peptide
B2: MBL-N (MBL native) collagen peptide, Ac-(POG)4-EPGQGLRG-(POG)3-NH2 (peptide)
peptide: Ac-P[Hyp]GP[Hyp]GP[Hyp]GP[Hyp]GEPGQGLRGP[Hyp]GP[Hyp]GP[Hyp]G-NH2
SMILES: CC(=O)N1CCC[C@H]1C(=O)N1C[C@H](O)C[C@H]1C(=O)NCC(=O)N1CCC[C@H]1C(=O)N1C[C@H](O)C[C@H]1C(=O)NCC(=O)N1CCC[C@H]1C(=O)N1C[C@H](O)C[C@H]1C(=O)NCC(=O)N1CCC[C@H]1C(=O)N1C[C@H](O)C[C@H]1C(=O)NCC(=O)N[C@@H](CCC(=O)O)C(=O)N1CCC[C@H]1C(=O)NCC(=O)N[C@@H](CCC(N)=O)C(=O)NCC(=O)N[C@@H](CC(C)C)C(=O)N[C@@H](CCCNC(=N)N)C(=O)NCC(=O)N1CCC[C@H]1C(=O)N1C[C@H](O)C[C@H]1C(=O)NCC(=O)N1CCC[C@H]1C(=O)N1C[C@H](O)C[C@H]1C(=O)NCC(=O)N1CCC[C@H]1C(=O)N1C[C@H](O)C[C@H]1C(=O)NCC(N)=O
notes: (POG)4 written out; (POG)3 written out; Homotrimeric collagen triple helix
B3: MBL-12 (12 triplets) collagen peptide, Ac-(POG)5-EPGQGLRG-(POG)5-NH2 (peptide)
peptide: Ac-P[Hyp]GP[Hyp]GP[Hyp]GP[Hyp]GP[Hyp]GEPGQGLRGP[Hyp]GP[Hyp]GP[Hyp]GP[Hyp]GP[Hyp]G-NH2
SMILES: CC(=O)N1CCC[C@H]1C(=O)N1C[C@H](O)C[C@H]1C(=O)NCC(=O)N1CCC[C@H]1C(=O)N1C[C@H](O)C[C@H]1C(=O)NCC(=O)N1CCC[C@H]1C(=O)N1C[C@H](O)C[C@H]1C(=O)NCC(=O)N1CCC[C@H]1C(=O)N1C[C@H](O)C[C@H]1C(=O)NCC(=O)N1CCC[C@H]1C(=O)N1C[C@H](O)C[C@H]1C(=O)NCC(=O)N[C@@H](CCC(=O)O)C(=O)N1CCC[C@H]1C(=O)NCC(=O)N[C@@H](CCC(N)=O)C(=O)NCC(=O)N[C@@H](CC(C)C)C(=O)N[C@@H](CCCNC(=N)N)C(=O)NCC(=O)N1CCC[C@H]1C(=O)N1C[C@H](O)C[C@H]1C(=O)NCC(=O)N1CCC[C@H]1C(=O)N1C[C@H](O)C[C@H]1C(=O)NCC(=O)N1CCC[C@H]1C(=O)N1C[C@H](O)C[C@H]1C(=O)NCC(=O)N1CCC[C@H]1C(=O)N1C[C@H](O)C[C@H]1C(=O)NCC(=O)N1CCC[C@H]1C(=O)N1C[C@H](O)C[C@H]1C(=O)NCC(N)=O
notes: (POG)5 written out; Homotrimeric collagen triple helix
B4: MBL-E (MBL EOG) collagen peptide, Ac-(POG)5-EOGQGLRG-(POG)3-NH2 (peptide)
peptide: Ac-P[Hyp]GP[Hyp]GP[Hyp]GP[Hyp]GP[Hyp]GE[Hyp]GQGLRGP[Hyp]GP[Hyp]GP[Hyp]G-NH2
SMILES: CC(=O)N1CCC[C@H]1C(=O)N1C[C@H](O)C[C@H]1C(=O)NCC(=O)N1CCC[C@H]1C(=O)N1C[C@H](O)C[C@H]1C(=O)NCC(=O)N1CCC[C@H]1C(=O)N1C[C@H](O)C[C@H]1C(=O)NCC(=O)N1CCC[C@H]1C(=O)N1C[C@H](O)C[C@H]1C(=O)NCC(=O)N1CCC[C@H]1C(=O)N1C[C@H](O)C[C@H]1C(=O)NCC(=O)N[C@@H](CCC(=O)O)C(=O)N1C[C@H](O)C[C@H]1C(=O)NCC(=O)N[C@@H](CCC(N)=O)C(=O)NCC(=O)N[C@@H](CC(C)C)C(=O)N[C@@H](CCCNC(=N)N)C(=O)NCC(=O)N1CCC[C@H]1C(=O)N1C[C@H](O)C[C@H]1C(=O)NCC(=O)N1CCC[C@H]1C(=O)N1C[C@H](O)C[C@H]1C(=O)NCC(=O)N1CCC[C@H]1C(=O)N1C[C@H](O)C[C@H]1C(=O)NCC(N)=O
notes: (POG)5 written out; (POG)3 written out; Homotrimeric collagen triple helix; form used in AUC, SAXS and SANS; The CD and DSC runs used a form with one POG triplet fewer

Experiments:
[1] = molecular target: the molecule itself; assay: AUC; sedimentation velocity, 50,000 rpm, 20 °C, 137 mM PBS pH 7.4 or 20 mM L-histidine pH 6.0 in H2O (10 peptides, 0.2-2.5 mg/ml) and 20 mM L-histidine in 2H2O (six peptides, 0.75-4 mg/ml); c(s) analysis with SEDFIT; peptides equilibrated for at least 48 h at room temperature to assemble into triple helices
[2] = molecular target: the molecule itself; assay: circular dichroism; spectra 190-260 nm and melting curves at 226 nm from 0 to 70 °C, average heating rate 0.1 °C/min

Protein	binding result [1]	binding result [2]
B1	binds	–
B2	–	binds
B3	–	binds
B4	binds	–
